The source of these data is US6664048 (MAX PLANCK GESELLSCHAFT ZUR FURDERUNG DER WISSENSCHAFTEN E V, dated 2003).

For this experiment, the target named is T1, LexA protein expressed from pBTM117c (UniProt P0A7C2 1-202).
T1 construct: range 1-220
T1 sequence (looked up): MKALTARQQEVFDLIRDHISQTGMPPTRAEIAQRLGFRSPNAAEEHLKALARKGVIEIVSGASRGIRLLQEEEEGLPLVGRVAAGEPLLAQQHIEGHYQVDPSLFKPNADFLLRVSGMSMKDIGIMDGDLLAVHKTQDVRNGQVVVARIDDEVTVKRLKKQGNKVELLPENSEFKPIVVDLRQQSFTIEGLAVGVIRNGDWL
Put plainly: yeast two-hybrid in L40cc, growth on SD-leu-trp-his and β-galactosidase membrane assay. An excerpt: Detection of Clones Expressing Known Interacting Proteins From False Positives Using the Improved Two-hybrid System Pairs of the yeast two-hybrid plasmids pBTM117cSIM1 & pGAD427-ARNT, pBTM117c & pGAD427 and pBTM117c-HIP1 & pGAD427 were transformed into the yeast strain L40cc, and Trp+Leu+ transformants that contained at least one of each of the two plasmids were selected on SD-leu-trp plates. Two transformants from each transformation were investigated for the presence of protein-protein interactions by testing the ability of the yeast cells to grow on SD-leu-trp, SD-leu-trp-his, SD-leu+CAN and SD-trp+CHX plates and by the β-galactosidase membrane assay (Breeden and Nasmyth, 1985). […] After selection of the yeast strains harboring the different combinations of the two-hybrid plasmids on SD-leu+CAN and SD-trp+CHX the resulting strains were also analyzed by the β-galactosidase assay. After incubating the membrane containing all three strains on SD-trp+CHX medium only progeny of the yeast strain that originally harbored both the plasmids pBTM117c-HIP1 & pGAD427 yet which had lost the pGAD427 plasmid through counterselection turned blue after incubating in X-Gal solution. […]

B1: GAL4ad protein expressed from pGAD427 (other, yeast, UniProt P04386 768-881, looked up)
chain: ANFNQSGNIADSSLSFTFTNSSNGPNLITTQTNSQALSQPIASSNVHDNFMNNEITASKIDDGNNSKPLSPGWTDQTAYNAFGITTGMFNTTTMDDVYNYLFDDEDTPPNPKKE
notes: range 768-881
With B1, the binding result is “no binding”.
